# Earlier results in PMC2650391.
# Molecular target: Histone H3K4me3 peptide (Homo sapiens) (UniProt P68431)
# ING2 PHD, sequence (Q9H160 209-264): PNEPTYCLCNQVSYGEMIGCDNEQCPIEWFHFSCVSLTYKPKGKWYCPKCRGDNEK
substance,measurement,value
ING2 PHD (from UniProt Q9H160),Kd,1500 nM
